Test results taken from the supplement of paper PMC10567573.
± gives the standard deviation.

Assay: protein stability index of a GFP-peptide fusion (GPS, HEK-293T) (PSI 1-6); higher = more stable
[1] = treatment: DMSO, c terminus: a fixed tail appended
[2] = treatment: MLN4924 1 uM, 8 h, c terminus: a fixed tail appended
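Further: 24-mer peptide tiles fused after GFP, lentivirally expressed, FACS-sorted into six equal bins by GFP/DsRed ratio, decoded by Illumina sequencing, PSI is the read-weighted mean bin number.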

Row | Sequence | protein stability index [1] | protein stability index [2] | protein stability index (treatment: DMSO, c terminus: native) | protein stability index (treatment: MLN4924 1 uM, 8 h, c terminus: native)
1 | STRGAARPAQAIGTQPRATKHKCR [SPACA9] | 5.13 ± 0.098 | 5.14 ± 0.36 |  | 
2 | MAAGTSSYWEDLRKQARQLENELD [GOSR1] | 4.11 ± 0.15 | 3.99 ± 0.25 |  | 
3 | EQHISKCKKAFREGSRKSSRVKGS [KMT2E] | 4.59 ± 0.26 | 4.63 ± 0.25 |  | 
4 | EADPEMIKRAEDYGPVEVISHWHP [CLPTM1] | 4.42 ± 0.24 | 4.26 ± 0.38 |  | 
5 | GKGRTASPINSPARGTPSPKRMPS [FSD1] | 5.13 ± 0.25 | 5.05 ± 0.32 |  | 
6 | GASTFKEEPQTVPEARSRDATPPV [JUNB] | 5.34 ± 0.19 | 5.32 ± 0.15 |  | 
7 | DAWSGSNAYHIERLMSFRPICSAN [CRYBA1] | 2.46 ± 0.26 | 2.55 ± 0.26 |  | 
8 | ICSLICLLIYTVKIRRFNKAKPEP [TMEM192] | 2.24 ± 0.52 | 2.44 ± 0.63 |  | 
9 | AEGSPGGPGDSQGRKRRQTSMTDF [CDKN1A] | 5.23 ± 0.1 | 5.13 ± 0.22 |  | 
10 | AILQNHTDFKDKIVLDVGCGSGIL [CARM1] | 2.31 ± 0.21 | 2.34 ± 0.25 |  | 
11 | LFPPKAKSNQPKSLEDLIFESLPE [ATE1] | 3 ± 0.055 | 3.66 ± 0.59 |  | 
12 | SAFTAAHELGHVFNMLHDNSKPCI [ADAMTS4] | 2.93 ± 0.094 | 3 ± 0.19 |  | 
13 | APGPSPADKKRSGKKKISKADIGA [WAS] | 5.02 ± 0.23 | 4.86 ± 0.17 |  | 
14 | LSFATRFHRLDEPPHICWDETHFG [POMT2] | 2.25 ± 0.29 | 2.25 ± 0.26 |  | 
15 | HTTLQCLAARVIVNHRIYYKGHIP [FEM1C] | 2.43 ± 0.17 | 2.43 ± 0.25 |  | 
16 | LRLYKHNSQALLLHSSILTCTLLL [MFSD9] | 2.74 ± 0.6 | 2.88 ± 0.67 |  | 
17 | NAGLVWFFPWREAKPGSTEKGLPL [MFSD9] | 2.23 ± 0.18 | 2.16 ± 0.29 |  | 
18 | LLTGQCDFGSNCRFSHMSERDLQE [ZMAT5] | 2.67 ± 0.21 | 2.78 ± 0.17 |  | 
19 | TAAGGQGGPGGPGSDKQQQQQHIE [NR2F2] | 5.34 ± 0.27 | 5.47 ± 0.19 |  | 
20 | KGFSHLDVMLVECYDPKGDQWNIL [KLHL14] | 2.82 ± 0.6 | 2.9 ± 0.68 |  | 
21 | GKKDVSHSSPVDLKIPQVRGMDLS [LCOR] | 4.32 ± 0.31 | 4.24 ± 0.36 |  | 
22 | LRAESDFEQLPDDVAISANIADIE [NCF4] | 4.66 ± 0.28 | 5.21 ± 0.19 |  | 
23 | LANSWNCLPKHLLHSVNQRFGSNN [KLHDC2] | 2.43 ± 0.33 | 2.3 ± 0.23 |  | 

Row | Sequence | protein stability index [1] | protein stability index [2] | protein stability index (treatment: DMSO, c terminus: native) | protein stability index (treatment: MLN4924 1 uM, 8 h, c terminus: native)
24 | SKIPFKILSGHEHAVSTCHFCVDD [WDR88] | 2.91 ± 0.25 | 3.07 ± 0.26 |  | 
25 | LGTENLHLIFSYSVWVLRDFPEDG [VPS39] | 2.94 ± 0.46 | 2.74 ± 0.7 |  | 
26 | QEIMEKYNIKLKWTNQQKLYSRTG [CFHR2] | 2.45 ± 0.32 | 2.66 ± 0.35 |  | 
27 | TLNIKETDSKELSMAKEVIAKELS [ZBED1] | 3.87 ± 0.086 | 4.13 ± 0.12 |  | 
28 | PSVCSENIHPQVLLPDQARGEVPW [ZNF263] | 4.19 ± 0.22 | 4.34 ± 0.37 |  | 
29 | DPESERALQAPHSPSKTDGKELAG [PBXIP1] | 5.48 ± 0.28 | 5.75 ± 0.25 |  | 
30 | DKFVATMYHYLQFAYYKLNDVRQA [P3H4] | 2.75 ± 0.39 | 2.77 ± 0.47 |  | 
31 | SVHFDGETIEGAPPLWAASAAGHL [FEM1A] | 3.42 ± 0.07 | 3.47 ± 0.5 |  | 
32 | IQELELQAQIHGLPVPPTPGLLSL [TFE3] | 2.62 ± 0.22 | 2.56 ± 0.28 |  | 
33 | HGHLILHSMHKYQPRIHLVRAAQL [TBX6] | 2.1 ± 0.29 | 2.07 ± 0.27 |  | 
34 | YLGLPRLEFYRYYQQLKLEGPGEQ [SLC29A1] | 2.54 ± 0.39 | 2.58 ± 0.38 |  | 
35 | LAVAVPAVTSADSQFSQTTQAGS [LYSMD4] |  |  | 3.91 ± 0.64 | 3.96 ± 0.32
36 | IERLTREVEATRRALIDRMVNLHQ [DDIT3] | 2.45 ± 0.18 | 2.61 ± 0.24 |  | 
37 | FAPLLDEQYDLATKRVRQLLDLDP [GOLPH3] | 2.64 ± 0.48 | 2.94 ± 0.33 |  | 
38 | PFKRFLRKKSKPKKCVKKFVEYCD [SMOC2] | 2.45 ± 0.091 | 2.59 ± 0.26 |  | 
39 | ENPDLQEAYIAKQKRLKSKLLDHD [GDAP1] | 4.53 ± 0.11 | 4.67 ± 0.15 |  | 
40 | ITVAELREAVPALLGEPLAGPELD [CABP4] | 3.7 ± 0.39 | 3.84 ± 0.44 |  | 
41 | CATVGNRGFVFGGRYRDARMNDLH [KLHDC2] | 2.19 ± 0.36 | 2.05 ± 0.19 |  | 
42 | GIAHKIEAGNEFKNIFGTPEFVAP [DAPK3] | 3.44 ± 0.61 | 3.64 ± 0.39 |  | 
43 | NGDPESVASLHWDGGALLGVLQYR [ADAMTS4] | 2.29 ± 0.74 | 2.54 ± 0.35 |  | 
44 | KIKSEEIEITFSYWDGSGHRRTVK [FAM50A] | 2.27 ± 0.21 | 2.43 ± 0.16 |  | 
45 | MMHDQRTGPAWNVLMWTMLFLGQG [SOAT2] | 2.8 ± 0.93 | 2.65 ± 0.59 |  | 
